Results published in US20210388087A1 (Chugai, published 2021).
Positions count from the first letter of the chain named. Names and notes keep the numbering of the source. Blank lines part the entries; values can stand above or below the binder they belong to.

Molecular target: T1, CD3 epsilon homodimer protein (UniProt P07766 23-126)
T1 construct: immobilized on Sensor chip CM4 by amine coupling; also called CD3 (CD3 epsilon)
Experiment: SPR (Biacore T200), CD3 epsilon homodimer on CM4 chip, one-arm antibody as analyte, 25 C;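 further: homodimer attached to the sensor surface via amine coupling, HBS-EP+ used as running buffer during binding runs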

T1 sequence (P07766 23-126): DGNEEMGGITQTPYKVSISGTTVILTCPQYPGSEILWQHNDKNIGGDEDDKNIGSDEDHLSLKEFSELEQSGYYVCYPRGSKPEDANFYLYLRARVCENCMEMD

B1: CE115HA000 Q50A one-arm antibody (antibody, human IgG1, kappa, L234A L235A, N297A, name in Kabat numbering)
heavy: QVQLVESGGGVVQPGRSLRLSCAASGFTFSNAWMHWVRQAPGKGLEWVAAIKAKSNNYATYYAESVKGRFTISRDDSKNSLYLQMNSLKTEDTAVYYCRYVHYGAYYGVDAWGQGTTVTVSSASTKGPSVFPLAPSSKSTSGGTAALGCLVKDYFPEPVTVSWNSGALTSGVHTFPAVLQSSGLYSLSSVVTVPSSSLGTQTYICNVNHKPSNTKVDKKVEPKSCDKTHTCPPCPAPEAAGGPSVFLFPPKPKDTLMISRTPEVTCVVVDVSHEDPEVKFNWYVDGVEVHNAKTKPREEQYASTYRVVSVLTVLHQDWLNGKEYKCKVSNKALPAPIEKTISKAKGQPREPQVYTLPPSRCELTKNQVSLSCAVKGFYPSDIAVEWESNGQPENNYKTTPPVLDSDGSFFLVSKLTVDKSRWQQGNVFSCSVMHEALHNHYTQKSLSLSPDYKDDDDK
chain: EPKSSDKTHTCPPCPAPELLGGPSVFLFPPKPKDTLMISRTPEVTCVVVDVSHEDPEVKFNWYVDGVEVHNAKTKPREEQYNSTYRVVSVLTVLHQDWLNGKEYKCKVSNKALPAPIEKTISKAKGQPREPQVCTLPPSRDELTKNQVSLWCLVKGFYPSDIAVEWESNGQPENNYKTTPPVLDSDGSFFLYSKLTVDKSRWQQGNVFSCSVMHEALHNRYTQKSLSLSP
light: DIVMTQSPLSLPVTPGEPASISCRSSQSLVHSNRNTYLHWYQQKPGQAPRLLIYKVSNRFSGVPDRFSGSGSGTDFTLKISRVEAEDVGVYYCGQGTQVPYTFGQGTKLEIKRTVAAPSVFIFPPSDEQLKSGTASVVCLLNNFYPREAKVQWKVDNALQSGNSQESVTEQDSKDSTYSLSSTLTLSKADYEKHKVYACEVTHQGLSSPVTKSFNRGEC
ratio of amounts bound (altered form / CE115HA000): 0.24

B3: CE115HA000 S52cD one-arm antibody (antibody, human IgG1, kappa, L234A L235A, N297A, name in Kabat numbering)
heavy: B1 heavy with A50Q, S55D
chain: B1 chain
light: B1 light
ratio of amounts bound (altered form / CE115HA000): 0.6

B4: CE115HA000 Q50Y one-arm antibody (antibody, human IgG1, kappa, L234A L235A, N297A, name in Kabat numbering)
heavy: B1 heavy with A50Y
chain: B1 chain
light: B1 light
ratio of amounts bound (altered form / CE115HA000): 0.25

B5: CE115HA000 R16E one-arm antibody (antibody, human IgG1, kappa, L234A L235A, N297A, name in Kabat numbering)
heavy: B1 heavy with R16E, A50Q
chain: B1 chain
light: B1 light
ratio of amounts bound (altered form / CE115HA000): 0.88

B6: CE115HA000 S30D one-arm antibody (antibody, human IgG1, kappa, L234A L235A, N297A, name in Kabat numbering)
heavy: B1 heavy with S30D, A50Q
chain: B1 chain
light: B1 light
ratio of amounts bound (altered form / CE115HA000): 0.86

B7: CE115HA000 R16Q one-arm antibody (antibody, human IgG1, kappa, L234A L235A, N297A, name in Kabat numbering)
heavy: B1 heavy with R16Q, A50Q
chain: B1 chain
light: B1 light
ratio of amounts bound (altered form / CE115HA000): 0.9

B8: CE115HA000 Q50I one-arm antibody (antibody, human IgG1, kappa, L234A L235A, N297A, name in Kabat numbering)
heavy: B1 heavy with A50I
chain: B1 chain
light: B1 light
ratio of amounts bound (altered form / CE115HA000): 0.4

B10: CE115HA000 S52cQ one-arm antibody (antibody, human IgG1, kappa, L234A L235A, N297A, name in Kabat numbering)
heavy: B1 heavy with A50Q, S55Q
chain: B1 chain
light: B1 light
ratio of amounts bound (altered form / CE115HA000): 1.04

B11: CE115HA000 S52cV one-arm antibody (antibody, human IgG1, kappa, L234A L235A, N297A, name in Kabat numbering)
heavy: B1 heavy with A50Q, S55V
chain: B1 chain
light: B1 light
ratio of amounts bound (altered form / CE115HA000): 0.93

B13: CE115HA000 Q50S one-arm antibody (antibody, human IgG1, kappa, L234A L235A, N297A, name in Kabat numbering)
heavy: B1 heavy with A50S
chain: B1 chain
light: B1 light
ratio of amounts bound (altered form / CE115HA000): 0.24

B16: CE115HA000 S52cF one-arm antibody (antibody, human IgG1, kappa, L234A L235A, N297A, name in Kabat numbering)
heavy: B1 heavy with A50Q, S55F
chain: B1 chain
light: B1 light
ratio of amounts bound (altered form / CE115HA000): 1.13

B17: CE115HA000 S52cA one-arm antibody (antibody, human IgG1, kappa, L234A L235A, N297A, name in Kabat numbering)
heavy: B1 heavy with A50Q, S55A
chain: B1 chain
light: B1 light
ratio of amounts bound (altered form / CE115HA000): 0.96

B18: CE115HA000 S52cY one-arm antibody (antibody, human IgG1, kappa, L234A L235A, N297A, name in Kabat numbering)
heavy: B1 heavy with A50Q, S55Y
chain: B1 chain
light: B1 light
ratio of amounts bound (altered form / CE115HA000): 1.11

B19: CE115HA000 S30G one-arm antibody (antibody, human IgG1, kappa, L234A L235A, N297A, name in Kabat numbering)
heavy: B1 heavy with S30G, A50Q
chain: B1 chain
light: B1 light
ratio of amounts bound (altered form / CE115HA000): 1.01

B20: CE115HA000 Q50K one-arm antibody (antibody, human IgG1, kappa, L234A L235A, N297A, name in Kabat numbering)
heavy: B1 heavy with A50K
chain: B1 chain
light: B1 light
ratio of amounts bound (altered form / CE115HA000): 0.33

B21: CE115HA000 S52cG one-arm antibody (antibody, human IgG1, kappa, L234A L235A, N297A, name in Kabat numbering)
heavy: B1 heavy with A50Q, S55G
chain: B1 chain
light: B1 light
ratio of amounts bound (altered form / CE115HA000): 0.97

B23: CE115HA000 Q50E one-arm antibody (antibody, human IgG1, kappa, L234A L235A, N297A, name in Kabat numbering)
heavy: B1 heavy with A50E
chain: B1 chain
light: B1 light
ratio of amounts bound (altered form / CE115HA000): 0.26

B27: CE115HA000 Q105E one-arm antibody (antibody, human IgG1, kappa, L234A L235A, N297A, name in Kabat numbering)
heavy: B1 heavy with A50Q, Q114E
chain: B1 chain
light: B1 light
ratio of amounts bound (altered form / CE115HA000): 0.94

B28: CE115HA000 S52cK one-arm antibody (antibody, human IgG1, kappa, L234A L235A, N297A, name in Kabat numbering)
heavy: B1 heavy with A50Q, S55K
chain: B1 chain
light: B1 light
ratio of amounts bound (altered form / CE115HA000): 1.19

B29: CE115HA000 Q50D one-arm antibody (antibody, human IgG1, kappa, L234A L235A, N297A, name in Kabat numbering)
heavy: B1 heavy with A50D
chain: B1 chain
light: B1 light
ratio of amounts bound (altered form / CE115HA000): 0.27

B30: CE115HA000 Q50L one-arm antibody (antibody, human IgG1, kappa, L234A L235A, N297A, name in Kabat numbering)
heavy: B1 heavy with A50L
chain: B1 chain
light: B1 light
ratio of amounts bound (altered form / CE115HA000): 0.23

B32: CE115HA000 S52cL one-arm antibody (antibody, human IgG1, kappa, L234A L235A, N297A, name in Kabat numbering)
heavy: B1 heavy with A50Q, S55L
chain: B1 chain
light: B1 light
ratio of amounts bound (altered form / CE115HA000): 0.98

B33: CE115HA000 R19T one-arm antibody (antibody, human IgG1, kappa, L234A L235A, N297A, name in Kabat numbering)
heavy: B1 heavy with R19T, A50Q
chain: B1 chain
light: B1 light
ratio of amounts bound (altered form / CE115HA000): 0.8

The remaining lines, values ahead:

ratio of amounts bound (altered form / CE115HA000): 0.91
B2: CE115HA000 T28S one-arm antibody (antibody, human IgG1, kappa, L234A L235A, N297A, name in Kabat numbering)
heavy: B1 heavy with T28S, A50Q
chain: B1 chain
light: B1 light

ratio of amounts bound (altered form / CE115HA000): 1.05
B9: CE115HA000 S74A one-arm antibody (antibody, human IgG1, kappa, L234A L235A, N297A, name in Kabat numbering)
heavy: B1 heavy with A50Q, S77A
chain: B1 chain
light: B1 light

ratio of amounts bound (altered form / CE115HA000): 0.92
B12: CE115HA000 S62D one-arm antibody (antibody, human IgG1, kappa, L234A L235A, N297A, name in Kabat numbering)
heavy: B1 heavy with A50Q, S65D
chain: B1 chain
light: B1 light

ratio of amounts bound (altered form / CE115HA000): 0.9
B14: CE115HA000 S77T one-arm antibody (antibody, human IgG1, kappa, L234A L235A, N297A, name in Kabat numbering)
heavy: B1 heavy with A50Q, S80T
chain: B1 chain
light: B1 light

ratio of amounts bound (altered form / CE115HA000): 0.92
B15: CE115HA000 S62E one-arm antibody (antibody, human IgG1, kappa, L234A L235A, N297A, name in Kabat numbering)
heavy: B1 heavy with A50Q, S65E
chain: B1 chain
light: B1 light

ratio of amounts bound (altered form / CE115HA000): 0.91
B22: CE115HA000 S74P one-arm antibody (antibody, human IgG1, kappa, L234A L235A, N297A, name in Kabat numbering)
heavy: B1 heavy with A50Q, S77P
chain: B1 chain
light: B1 light

ratio of amounts bound (altered form / CE115HA000): 0.98
B24: CE115HA000 T57A one-arm antibody (antibody, human IgG1, kappa, L234A L235A, N297A, name in Kabat numbering)
heavy: B1 heavy with A50Q, T60A
chain: B1 chain
light: B1 light

ratio of amounts bound (altered form / CE115HA000): 1.19
B25: CE115HA000 S62K one-arm antibody (antibody, human IgG1, kappa, L234A L235A, N297A, name in Kabat numbering)
heavy: B1 heavy with A50Q, S65K
chain: B1 chain
light: B1 light

ratio of amounts bound (altered form / CE115HA000): 1
B26: CE115HA000 S62P one-arm antibody (antibody, human IgG1, kappa, L234A L235A, N297A, name in Kabat numbering)
heavy: B1 heavy with A50Q, S65P
chain: B1 chain
light: B1 light

ratio of amounts bound (altered form / CE115HA000): 0.56
B31: CE115HA000 T28D one-arm antibody (antibody, human IgG1, kappa, L234A L235A, N297A, name in Kabat numbering)
heavy: B1 heavy with T28D, A50Q
chain: B1 chain
light: B1 light
